Test results from the PETadex activity labels (doi:10.1073/pnas.2006753117).
Substitutions are numbered along the chain they refer to.

B1: unnamed (protein)
chain: MQTTVTTMLLASVALAACAGGGSTPLPLPQQQPPQQEPPPPPVPLASRAACEALKDGNGDMVWPNAATVVEVAAYVPAGVNISMADNPSICGGDEDPITSTFAFCEVSGAIAKRTGIDGYPYEIKFRLRMPAEWNGRFFMEGGSGTNGCLSAATGSIGGGQIASALSRNFATIATDGGHDNAVNDNPDALGTVAFGLDPQARLDMGYNSYDQVTQAGKAAVARFYGRAADKSYFIGCSEGGREGMMLSQRFPSHYDGIVAGAPGYQLPKAGISGAWTTQSLAPAAVGLDAQGVPLINKSFSDADLHLLSQAILGTCDALDGLADGIVDNYRACQAAFDPATAANPANGQALQCVGAKTADCLSPVQVTAIKRAMAGPVNSAGTPLYNRWAWDAGMSGLSGTTYNQGWRSWWLGSFNSSANNAQRVSGFSARSWLVDFATPPEPMPMTQVAARMMKFDFDIDPLKIWATSGQFTQSSMDWHGATSTDLAAFRDRGGKMILYHCMSDAAFSALDTADYYERLGAAMPGAAGFARLFLVPGMNHCCGGPGTDRFDMLTPLVAWVERGEAPDQISAWSGTPGYFGVAARTRPLCPYPQIARYKGSGDINTEANFACAAPP
B2: unnamed (protein)
chain: MQTTVTTMLLASVALAACAGGGSTPLPLPQQQPPQQEPPPPPVPLASRAACEALKDGNGDMVWPNAATVVEVAAWRDAAPATASAAALPEHCEVSGAIAKRTGIDGYPYEIKFRLRMPAEWNGRFFMEGGGGTNGSLSAATGSIGGGQIASALSRNFATIATDGGHDNAVNDNPDALGTVAFGLDPQARLDMGYNSYDQVTQAGKAAVARFYGRAADKSYFIGCSEGGREGMMLSQRFPSHYDGIVAGAPGYQLPKAGISGAWTTQSLAPAAVGLDAQGVPLINKSFSDADLHLLSQAILGTCDALDGLADGIVDNYRACQAAFDPATAANPANGQALQCVGAKTADCLSPVQVTAIKRAMAGPVNSAGTPLYNRWAWDAGMSGLSGTTYNQGWRSWWLGSFNSSANNAQRVSGFSARSWLVDFATPPEPMPMTQVAARMMKFDFDIDPLKIWATSGQFTQSSMDWHGATSTDLAAFRDRGGKMILYHGMSDAAFSALDTADYYERLGAAMPGAAGFARLFLVPGMNHCSGGPGTDRFDMLTPLVAWVERGEAPDQISAWSGTPGYFGVAARTRPLCPYPQIARYKGSGDINTEANFACAAPP
B3: unnamed (protein)
chain: MQTTVTTMLLASVALAACAGGGSTPLPLPQQQPPQQEPPPPPVPLASRAACEALKDGNGDMVWPNAATVVEVAAWRDAAPATASAAALPEHCEVSGAIAKRTGIDGYPYEIKFRLRMPAEWNGRFFMEGGSGTNGSLSAATGSIGGGQIASALSRNFATIATDGGHDNAVNDNPDALGTVAFGLDPQARLDMGYNSYDQVTQAGKAAVARFYGRAADKSYFIGWSEGGREGMMLSQRFPSHYDGIVAGAPWDSSTNFDLAAFRDRGGKMILYHGMSDAAFSALDTADYYERLGAAMPGAAGFARLFLVPGMNHSSGGPGTDRFDMLTPLVAWVERGEAPDQISAWSGTPGYFGVAARTRPLCPYPQIARYKGSGDINTEANFACAAPP
B4: unnamed (protein)
chain: B2 chain with G131S, E226T
B5: unnamed (protein)
chain: MNFPRASRLMQAAVLGGLMAVSAAATAQTNPYARGPNPTAASLEASAGPFTVRSFTVSRPSGYGAGTVYYPTNAGGTVGAIAIVPGYTARQSSIKWWGPRLASHGFVVITIDTNSTLDQPSSRSSQQMAALRQVASLNGTSSSPIYGKVDTARMGVMGWSMGGGGSLISAANNPSLKAAAPQAPGYQLPKAGISGAWTTQSLAPAAVGLDAQGVPLINKSFSDADLHLLSQAILGTCDALDGLADGIVDNYRACQAAFDPATAANPANGQALQCVGAKTADCLSPVQVTAIKRAMAGPVNSAGTPLYNRWAWDAGMSGLSGTTYNQGWRSWWLGSFNSSANNAQRVSGFSARSWLVDFATPPEPMPMTQVAARMMKFDFDIDPLKIWATSGQFTQSSMDWHGATSTSSVTVPTLIFACENDSIAPVNSSALPIYDSMSRNAKQFLEINGGSHSCANSGNSNQALIGKKGVAWMKRFMDNDTRYSTFACENPNSTRVSDFRTANCS
B6: unnamed (protein)
chain: B3 chain with W224H, S314F
B7: unnamed (protein)
chain: B2 chain with G131S, F495I
B8: unnamed (protein)
chain: B3 chain with W224C, S314C
B9: unnamed (protein)
chain: B2 chain with G131S, S225A
B10: unnamed (protein)
chain: MFVRNADRAKNCMRAPLRVFPLKDTFSAQCANVSVWITSSVPPLRERHMDRRVTRRDLMQTRILLMLIAATGVAACGGDGGSTPAAQNPPLPLASRAACEAFQGNSNSIAWPHRATVVEVATWHEAEPANATAAATPEHCEISGAIARRTGIDGYPYEIKFRLRMPSEWNGRFFMEGGGGTNGSLSAATGSLGGGQTASALSRNFATIATDGGHDNAVNNNPDALGTVAFGMDPQARIDMGYNSYDQVTQAGKAAVAQFYGRAPDKSYFIGCSEGGREGMMLSQRFPSHYDGIVAGAPGYQLPKAGISGAWTTQSLAPAAVGVDAQNVPLINKAFSDVDLHLLSRGILGTCDALDGLSDGIVNDFRACQAAFDPATALNPDTSQPLQCTGAKTPDCLSAAQVTGIKRAMGGPVDSAGAALYNRWAWDPGMSGLNGTSYNQGWRSWWLGSYASSTNNAQRVNGFSARSWLVDFATPPEPMPVTQVAARMMNFNFDTDPPKIRATSGPFTPSSMEWHGATSTNLAAFRDRGGKLMLYHGMSDAAFSALDTADYYERLGAAMPGAAGFARLFLVPGMNHCSGGPGTDRFDMLTPLVAWVERDKAPDQVSAWAGTPGYFGATARTRPLCPYPQIARYKGSGDINAEASFVCVAP

What follows are proteins tested on MHET (assay: Proxy for plastic degradation [kcat] (s⁻¹)). Details: pH 7.5.

Row | Protein | Proxy for plastic degradation
1 | B1 | 0.16
2 | B2 | 11
3 | B3 | 0.1
4 | B4 | 14
5 | B5 | 0.11
6 | B6 | 0.06
7 | B7 | 1.3
8 | B8 | 0.05
9 | B9 | 0
10 | B10 | 9.5
